Here are results for 25 molecules from patent EP4810515A1 (Shanghai Haiju Biological Technology Co., Ltd., dated 2026).

First the molecules themselves.
T1: GDF15 protein (R&D, 8146-GD) (UniProt Q99988 197-308)
T1 construct: analyte of the SPR assay
T1 sequence (looked up): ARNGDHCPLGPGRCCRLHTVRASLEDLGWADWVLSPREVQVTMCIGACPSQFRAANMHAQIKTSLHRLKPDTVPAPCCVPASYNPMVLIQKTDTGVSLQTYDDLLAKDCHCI

T2: human GDF15 recombinant protein (ACRO, GD5-H5149) (human, UniProt Q99988 197-308)
T2 sequence (looked up): T1 sequence (looked up)

B1: G2-H1-hz2-hIgG1(LALAGA, -K) (antibody, V domains shown)
VH: QVQLQESGPGLVKPSETLSLTCTFSGFSLSTYGIGVGWIRQPPGKGLEWIAHIWWNNNKYFNTALKSRLTISKDTSKNQVSLKLSSVTAADTAVYYCARMGYDIMDYWGQGTLVTVSS
VL: DIVMTQSPSSLSTSVGDRVTITCKASQDVNTAVAWYQQKPGKSPKFLIYSSSYRYTGVPDRFSGSGSGTDFTFTISSVQPEDFAVYYCQQHYSTPWTFGGGTKVEIKR
notes: humanized from G2-CH1
B2: G2-H1-hz8-hIgG1(LALAGA, -K) (antibody, V domains shown)
VH: B1 VH with Q3T, T23S, I50L, V94T, L113S
VL: B1 VL with S9A, S10T, V15P, D17E, T22S, K42Q, K45R, P80S
notes: humanized from G2-CH1
B3: G2-H1-hz13-hIgG1(LALAGA, -K) (antibody, V domains shown)
VH: QVTLLESGGGLVQPGGSLRLSCSFSGFSLSTYGIGVGWIRQAPGKGLEWLAHIWWNNNKYFNTALKSRLTISKDTSKNTVYLQMNSVRAEDTAVYYCARMGYDIMDYWGQGTTVTVSS
VL: B1 VL with V3Q, S43A, V78L, G100Q
notes: humanized from G2-CH1
B4: G2-H1-hz6-hIgG1(LALAGA, -K) (antibody, V domains shown)
VH: B1 VH with Q3T, T23S, I50L, V94T, L113S
VL: B1 VL
notes: humanized from G2-CH1
B5: G2-H1-hz1-hIgG1(LALAGA, -K) (antibody, V domains shown)
VH: B1 VH
VL: B1 VL with V3Q, S43A, V78L, G100Q
notes: humanized from G2-CH1
B6: G2-H1-hz14-hIgG1(LALAGA, -K) (antibody, V domains shown)
VH: B3 VH
VL: B1 VL
notes: humanized from G2-CH1
B7: G2-H1-hz4-hIgG1(LALAGA, -K) (antibody, V domains shown)
VH: B1 VH
VL: B1 VL with S9A, S10T, V15P, D17E, T22S, K42Q, K45R, P80S
notes: humanized from G2-CH1
B8: G2-H1-hz15-hIgG1(LALAGA, -K) (antibody, V domains shown)
VH: B3 VH
VL: DIVMTQSPATLSTSPGERATLSCKASQDVNTAVAWYQQKPGQAPRFLIYSSSYRYTGVPARFSGSGSGTEFTFTISSLQSEDFAVYYCQQHYSTPWTFGGGTKVEIKR
notes: humanized from G2-CH1
B9: G2-H8-H1L1-hIgG1(LALAGA,-K)(gsm) (antibody, V domains shown)
VH: QITLKESGPTLVKPTQTLTLTCTFSGFSLSTYGIGVGWIRQPPGKALEWLAHIWWNDNKYYNTALKSRLTITKDTSKNQVVLTMTNMDPVDTATYYCARLAYDYVDSWGQGTLVTVSS
VL: DIVMTQTPLSLSVTPGQPASISCKSSKSLLHSEGITYLYWYLQKPGQSPQLLIYQMSNLVSGVPDRFSGSGSGTDFTLKISRVEAEDVGVYYCAQNLELPPTFGQGTKLEIKR
notes: humanized from G2-CH8-LP3; also called G2-H8-H1L1-hIgG1(gsm); G2-H8-H1L1-hIgG1 (gsm)(LALAGA,-K)
B10: G2-H8-H2L2-hIgG1(LALAGA,-K) (antibody, V domains shown)
VH: B9 VH with I2V, T10A, A46G, T72S, L113T, V114L
VL: B9 VL with K24R, G69S
notes: humanized from G2-CH8-LP3
B11: G2-H5-H2.2L2-hIgG1(LALAGA,-K) (antibody, V domains shown)
VH: EVQLVQSGAEVKKPGASVKVSCKASGYTFTDYNLNWVRQATGQGLEWMGDLNPYNQGIIYNQKFKGRVTLTVDKSISTAYMELSSLRSEDTAVYYCAREGRGGAWFDSWGQGTLVTVSS
VL: DIQMTQSPSSLSASVGDRVTITCKASEDIYHRLAWYQQKPGKAPKLLIYGATSLETGVPSRFSGSGSGTDYTFTISSLQPEDIATYYCQQYWSPPFTFGGGTKVEIKR
notes: humanized from G2-CH5-HP2
B12: G2-H5-H4.2L1-hIgG1(LALAGA,-K) (antibody, V domains shown)
VH: B11 VH with F29L, M48I, V68A, D73N
VL: B11 VL with Y71F
notes: humanized from G2-CH5-HP2
B13: G2-H5-H3.2L1-hIgG1(LALAGA,-K) (antibody, V domains shown)
VH: B11 VH with M48I, V68A
VL: B11 VL with Y71F
notes: humanized from G2-CH5-HP2
B14: G2-H5-H3.2L3-hIgG1(LALAGA,-K) (antibody, V domains shown)
VH: B11 VH with M48I, V68A
VL: B11 VL with Y49S
notes: humanized from G2-CH5-HP2
B15: G2-H5-H4.2L2-hIgG1(LALAGA,-K) (antibody, V domains shown)
VH: B11 VH with F29L, M48I, V68A, D73N
VL: B11 VL
notes: humanized from G2-CH5-HP2
B16: G2-H5-H1.2L4-hIgG1(LALAGA,-K) (antibody, V domains shown)
VH: B11 VH with L70M, K74T
VL: B11 VL with Y49S, V58I
notes: humanized from G2-CH5-HP2
B17: G2-H5-H2.2L3-hIgG1(LALAGA,-K) (antibody, V domains shown)
VH: B11 VH
VL: B11 VL with Y49S
notes: humanized from G2-CH5-HP2
B18: G2-H5-H3.2L4-hIgG1(LALAGA,-K) (antibody, V domains shown)
VH: B11 VH with M48I, V68A
VL: B11 VL with Y49S, V58I
notes: humanized from G2-CH5-HP2
B19: G2-H5-H2.2L4-hIgG1(LALAGA,-K) (antibody, V domains shown)
VH: B11 VH
VL: B11 VL with Y49S, V58I
notes: humanized from G2-CH5-HP2
B20: G2-H5-H1.2L1-hIgG1(LALAGA,-K) (antibody, V domains shown)
VH: B11 VH with L70M, K74T
VL: B11 VL with Y71F
notes: humanized from G2-CH5-HP2
B21: G2-H5-H2.2L1-hIgG1(LALAGA, -K) (antibody, V domains shown)
VH: B11 VH
VL: B11 VL with Y71F
notes: humanized from G2-CH5-HP2
B22: G2-H5-H4.2L3-hIgG1(LALAGA,-K) (antibody, V domains shown)
VH: B11 VH with F29L, M48I, V68A, D73N
VL: B11 VL with Y49S
notes: humanized from G2-CH5-HP2
B23: G2-H5-H1.2L2-hIgG1(LALAGA,-K) (antibody, V domains shown)
VH: B11 VH with L70M, K74T
VL: B11 VL
notes: humanized from G2-CH5-HP2
B24: G2-H5-H1.2L3-hIgG1(LALAGA,-K) (antibody, V domains shown)
VH: B11 VH with L70M, K74T
VL: B11 VL with Y49S
notes: humanized from G2-CH5-HP2
B25: G2-H5-H3.2L2-hIgG1(LALAGA,-K) (antibody, V domains shown)
VH: B11 VH with M48I, V68A
VL: B11 VL
notes: humanized from G2-CH5-HP2

Where a chain is given by its changes, count along the chain named.

In one assay the target is T1, GDF15 protein (R&D, 8146-GD). In words: SPR Biacore T200, antibody captured by anti-hFc on CM5, GDF15 as analyte, 1:1 model. In general terms: Surface plasmon resonance follows binding to a sensor surface in real time, without labels.
As usually defined, the Kd is the free concentration of one partner at which half of the binding sites on the other are occupied at equilibrium, for simple one-to-one binding. A high value points to a looser complex. As usually defined, the koff is a measure of how fast the partners let go of each other. Lower therefore signals slow dissociation. Broadly, the kon is the rate constant with which the complex forms. Lower therefore signals slow association. B1 returned a Kd of 0.0134 nM, a koff of 0.000192 s⁻¹ and a kon of 1.43e+07 M⁻¹ s⁻¹.

In the case of B2, binding was put at a Kd of 0.0178 nM, the koff came out at 0.000273 s⁻¹ and the association rate constant (kon) was determined as 1.53e+07 M⁻¹ s⁻¹.

Molecule B3 displayed an equilibrium dissociation constant (Kd) of 0.0211 nM, a koff of 0.000297 s⁻¹ and a kon of 1.41e+07 M⁻¹ s⁻¹.

B4 came in with a Kd of 0.0151 nM, a koff of 0.000221 s⁻¹ and a kon of 1.46e+07 M⁻¹ s⁻¹.

The molecule B5 returned a Kd of 0.0105 nM, a koff of 0.000146 s⁻¹ and a kon of 1.39e+07 M⁻¹ s⁻¹.

On to B6, for which the Kd worked out at 0.0107 nM, the off-rate constant (koff) is 0.00015 s⁻¹ and the kon amounted to 1.4e+07 M⁻¹ s⁻¹.

B7 returned a Kd of 0.00993 nM, a dissociation rate constant (koff) of 0.000183 s⁻¹ and a kon of 1.84e+07 M⁻¹ s⁻¹.

Take B8: the Kd is 0.00923 nM, the dissociation rate constant (koff) came out at 0.000115 s⁻¹ and the kon was 1.25e+07 M⁻¹ s⁻¹.

In the case of B9, the Kd turned out to be 0.022 nM, the koff worked out at 0.00017 s⁻¹ and the kon stood at 7.75e+06 M⁻¹ s⁻¹.

B10: the Kd was 0.0143 nM, the koff came out at 0.000127 s⁻¹ and the kon is 8.9e+06 M⁻¹ s⁻¹.

Regarding B11, the Kd is 0.0178 nM, the koff came to 0.000145 s⁻¹ and the kon amounted to 8.11e+06 M⁻¹ s⁻¹.

Molecule B12 yielded a Kd of 0.0442 nM, a koff of 0.000278 s⁻¹ and a kon of 6.28e+06 M⁻¹ s⁻¹.

B13 came in with a Kd of 0.0245 nM, a koff of 0.000173 s⁻¹ and an on-rate (kon) of 7.03e+06 M⁻¹ s⁻¹.

With B14, binding was put at a Kd of 0.0339 nM, the koff worked out at 0.000359 s⁻¹ and the on-rate (kon) worked out at 1.06e+07 M⁻¹ s⁻¹.

The molecule B15 gave a Kd of 0.0273 nM, a koff of 0.000239 s⁻¹ and a kon of 8.75e+06 M⁻¹ s⁻¹.

B16 gave an equilibrium dissociation constant (Kd) of 0.0241 nM, a koff of 0.000201 s⁻¹ and a kon of 8.36e+06 M⁻¹ s⁻¹.

On to B17, for which the Kd is 0.0336 nM, the koff was 0.000284 s⁻¹ and the kon was 8.46e+06 M⁻¹ s⁻¹.

The molecule B18 registered a Kd of 0.0221 nM, a koff of 0.000175 s⁻¹ and a kon of 7.9e+06 M⁻¹ s⁻¹.

Consider B19, for which the Kd amounted to 0.021 nM, the koff turned out to be 0.000231 s⁻¹ and the kon is 1.1e+07 M⁻¹ s⁻¹.

B20 registered a Kd of 0.0244 nM, a koff of 0.000169 s⁻¹ and a kon of 6.94e+06 M⁻¹ s⁻¹.

Take B21: binding was characterised by a dissociation constant (Kd) of 0.0229 nM, the koff came out at 0.000189 s⁻¹ and the kon was 8.26e+06 M⁻¹ s⁻¹.

B22 came in with a dissociation constant Kd of 0.0251 nM, an off-rate (koff) of 0.000193 s⁻¹ and a kon of 7.68e+06 M⁻¹ s⁻¹.

Molecule B23 displayed a Kd of 0.0145 nM, a koff of 0.000134 s⁻¹ and a kon of 9.19e+06 M⁻¹ s⁻¹.

The molecule B24 returned a dissociation constant (Kd) of 0.0197 nM, a koff of 0.000185 s⁻¹ and an on-rate (kon) of 9.37e+06 M⁻¹ s⁻¹.

With B25, the Kd worked out at 0.0327 nM, the koff was determined as 0.000265 s⁻¹ and the kon came to 8.1e+06 M⁻¹ s⁻¹.

A further assay addresses T2, human GDF15 recombinant protein (ACRO, …). In words: cell-based or functional assay.
As for B1, the “IC50, reporter gene cell strain (GFRAL/RET)” value (shortened to “IC50 … (GFRAL/RET)”) stood at 0.08 nM.

As for B2, the “IC50 … (GFRAL/RET)” value is 0.062 nM.

B3: the “IC50 … (GFRAL/RET)” value was 0.062 nM.

As to B4, the “IC50 … (GFRAL/RET)” value was 0.073 nM.

On to B5, for which the “IC50 … (GFRAL/RET)” value amounted to 0.063 nM.

As for B6, the “IC50 … (GFRAL/RET)” value amounted to 0.085 nM.

Consider B7, for which the “IC50 … (GFRAL/RET)” value was determined as 0.071 nM.

Consider B8, for which the “IC50 … (GFRAL/RET)” value was determined as 0.077 nM.

For B9, the “IC50 … (GFRAL/RET)” value was determined as 0.069 nM.

For B10, the “IC50 … (GFRAL/RET)” value is 0.053 nM.

B11: the “IC50 … (GFRAL/RET)” value came to 0.049 nM.

With B12, the “IC50 … (GFRAL/RET)” value was found to be 0.087 nM.

For B13, the “IC50 … (GFRAL/RET)” value was 0.068 nM.

As for B14, the “IC50 … (GFRAL/RET)” value was 0.064 nM.

Take B15: the “IC50 … (GFRAL/RET)” value amounted to 0.059 nM.

For the molecule B16, the “IC50 … (GFRAL/RET)” value was 0.053 nM.

Regarding B17, the “IC50 … (GFRAL/RET)” value was determined as 0.048 nM.

Take B18: the “IC50 … (GFRAL/RET)” value came out at 0.039 nM.

For the molecule B19, the “IC50 … (GFRAL/RET)” value is 0.048 nM.

In the case of B20, the “IC50 … (GFRAL/RET)” value was found to be 0.036 nM.

Regarding B21, the “IC50 … (GFRAL/RET)” value amounted to 0.055 nM.

In the case of B22, the “IC50 … (GFRAL/RET)” value is 0.049 nM.

In the case of B23, the “IC50 … (GFRAL/RET)” value was found to be 0.046 nM.

Turning to B24, the “IC50 … (GFRAL/RET)” value is 0.069 nM.

On to B25, for which the “IC50 … (GFRAL/RET)” value came out at 0.041 nM.
